This is an account of results in US5719021A, “Protein activation” (University of Medicine and Dentistry of New Jersey, dated 1998).

Changes are numbered by the printed parent chain. Read-outs that look alike come from different tables or passages of the source.

The term Ki denotes the equilibrium dissociation constant of an inhibitor or competing ligand from its target.

One series has as its target T1, pro-subtilisin E (Bacillus subtilis, UniProt P04189).
T1 construct: Pro-subtilisin consists of 352 amino acid residues; 77 residues for the amino-terminal pro-peptide plus 275 residues for the mature subtilisin; E. coli OmpA signal peptide (N); made in house; host or cells: E. coli (inclusion bodies)
T1 sequence (P04189 30-381 limits assumed): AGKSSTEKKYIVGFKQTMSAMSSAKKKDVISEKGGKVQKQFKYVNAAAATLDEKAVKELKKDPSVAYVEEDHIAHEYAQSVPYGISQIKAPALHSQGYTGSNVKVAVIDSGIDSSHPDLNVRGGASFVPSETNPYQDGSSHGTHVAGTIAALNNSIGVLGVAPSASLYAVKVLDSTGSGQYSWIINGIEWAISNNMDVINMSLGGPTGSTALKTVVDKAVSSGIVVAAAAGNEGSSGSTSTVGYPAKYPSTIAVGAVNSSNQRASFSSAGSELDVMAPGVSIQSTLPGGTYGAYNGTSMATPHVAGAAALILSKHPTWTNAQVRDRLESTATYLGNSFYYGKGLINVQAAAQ
As to the kind of experiment: In vitro processing of denatured pro-subtilisin to active subtilisin by dialysis. In kind it is biochemical. The settings on record: for Processing/conversion to active mature subtilisin: in vitro dialysis, e.g. 0.2M sodium phosphate pH 6.2. The source says:
Pro-subtilisin thus produced was solubilized in 6M guanidine-HCl and purified to homogeneity in the presence of 5M urea.
Its N-terminal amino acid sequence and the mobility in SDS-polyacrylamide gel electrophoresis were identical to those of authentic subtilisin.
It is interesting to note that the processing reaction to active subtilisin was independent of the pro-subtilisin concentration. Thus, the conversion is a first-order reaction.
The pro-subtilisin was in solution in a denaturant like guanidine-HCl or urea to prevent autoprocesssing to active subtitisin. For best results, the work was carried out with urea.
The method for activating the polypeptide comprises contacting it with the selected activating peptide. For pro-subtilisin E the efficiency of the conversion to active subtilisin E is independent of the pro-subtilisin concentration, indicating a first order reaction. The reaction is carried out in an appropriate buffer medium. […] At higher concentration, the ammonium sulfate appears to inhibit the proper folding of the polypeptide. When sulfate is used as the anion, there may be used as cations Na^+, K^+, and Li^+ or NH4^+ and equivalent others. Most efficient processing was obtained with 0.5M (NH4)2 SO4 in a 10 mM Tri-HCl buffer (at pH7.0), containing 1 mM CaCl2. Under these conditions, 1 mg of pro-subtilisin produced 89 U of subtilisin activity.

Another series concerns the target T2, subtilisin E (Bacillus subtilis, UniProt P04189).
T2 construct: 77 residues for the amino-terminal pro-peptide plus 275 residues for the mature subtilisin; made in house
T2 sequence (P04189 107-381): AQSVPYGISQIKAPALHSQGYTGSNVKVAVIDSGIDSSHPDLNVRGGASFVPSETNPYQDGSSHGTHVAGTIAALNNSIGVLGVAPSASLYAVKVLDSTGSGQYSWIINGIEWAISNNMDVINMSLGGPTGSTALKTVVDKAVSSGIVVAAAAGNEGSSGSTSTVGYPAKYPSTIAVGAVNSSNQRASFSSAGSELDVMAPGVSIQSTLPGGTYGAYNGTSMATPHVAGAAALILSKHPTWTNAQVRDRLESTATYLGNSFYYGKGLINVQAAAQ
As to the kind of experiment: Competitive inhibition of subtilisin E by synthetic pro-peptides. The format is biochemical. The settings on record: competitive inhibitor. From the text:
5. The synthetic pro-peptide is able to specifically bind to the active center of subtilisin.

The next series addresses T3, denatured subtilisin E (Bacillus subtilis, UniProt P04189).
T3 construct: 77 residues for the amino-terminal pro-peptide plus 275 residues for the mature subtilisin; made in house
T3 sequence (P04189 107-381): T2 sequence (P04189 107-381)
As to the kind of experiment: Renaturation (intermolecular refolding) of denatured subtilisin E with exogenously added pro-peptide. The format is biochemical. From the text: The studies established that denatured subtilisin (without the pro-peptide)cannot be renatured to active subtilisin.
The pro-peptide of 77 residues for subtilisin E (see FIG. 1) was synthesized.
(§1) Other synthetic activating sequences were reacted with a selected polypeptide, in this case subtilisin, as described by Ohta et al. in Molecular Microbiology, 5(6), 1507-1510 (1991), which is incorporated herein by reference (and cofiled herewith). Active subtilisin was obtained.
(§2) The concentration of the activating peptide is preferably in a molar ratio of one of the activating protein to the polypeptide to be activated. At higher and lower concentration than 1 to 1, the renaturation yield was not as high; when the ratio exceeded 1, inhibition was observed. The activating peptide appears to act an inhibitor of the activated polypeptide.
(§3) Different concentrations of the different synthetic peptides were used a shown in the above-cited reference. The mixture of synthetic and polypeptide was dialyzed against 10 mM sodium phosphate, pH 7.0, that also contained 0.5M (NH4)2 SO4, 2 mM CaCl2 and 10 μm of 3,5-bis-trifluoromethylbenzeneboronic acid (BTFBA), a serine protease inhibitor.

The target of series [1] is T4, denatured subtilisin BPN' (Bacillus amyloliquefaciens, UniProt P00782).
T4 sequence (P00782 108-382): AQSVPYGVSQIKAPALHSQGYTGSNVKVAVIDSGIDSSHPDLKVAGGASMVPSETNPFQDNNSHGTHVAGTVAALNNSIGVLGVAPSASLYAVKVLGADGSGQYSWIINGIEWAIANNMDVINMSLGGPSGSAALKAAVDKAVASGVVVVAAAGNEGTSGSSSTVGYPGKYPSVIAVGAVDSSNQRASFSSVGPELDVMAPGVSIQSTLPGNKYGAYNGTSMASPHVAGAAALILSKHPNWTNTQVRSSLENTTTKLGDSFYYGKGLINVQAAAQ
The series is described as follows: Renaturation of denatured subtilisin BPN' with exogenously added pro-peptide. The format is biochemical. The settings on record: for Efficiency of renaturation of denatured subtilisin BPN' relative to the pro-77-mer: relative to pro-77-mer.
From the text: Similarly, pro-peptides corresponding to -1 to -77, -1 to -68 and -1 to -63 for subtilisin BPN' were synthesized (See FIG. 1).
as §1, §2, §3

Another series addresses T5, subtilisin Carlsberg (Bacillus licheniformis, UniProt P00780).
T5 construct: denatured subtilisin (without the pro-peptide)cannot be renatured to active subtilisin
As to the kind of experiment: Renaturation of acid-denatured subtilisin Carlsberg with exogenously added pro-peptide. In kind it is biochemical. The source says:
This pro-peptide variant was effective even though there are quite a number of amino acid substitutions in both subtilisins BPN' and Carlsberg when compared with subtilisin E (See FIG. 1).

The next series deals with T6, subtilisin BPN' (Bacillus amyloliquefaciens).
T6 chain: T4 sequence (P00782 108-382)
The series is described as follows: competitive inhibition of enzyme activity.

In series [2] the target is T7, subtilisin E (Bacillus subtilis).
T7 chain: T2 sequence (P04189 107-381) with A85S
The series is described as follows: competitive inhibition of enzyme activity.

Consider `O=S(=O)(F)Cc1ccccc1` [phenylmethanesulfonyl fluoride, reference compound], for which the “Inhibition of the processing of pro-subtilisin to active subtilisin” value on pro-subtilisin E is on record as “unable to inhibit”.

As to “synthetic pro-peptide of -1 to -77 for subtilisin E: synthesized pro-peptide of 77 residues (-1 to -77) for subtilisin E”, the Ki with subtilisin E (listed as synthetic pro-peptide) was 540 nM; with subtilisin E (read-out: Ki as competitive inhibitor of subtilisin E), ≤ 540 nM. In the series with denatured subtilisin E, the “Refolding/renaturation of denatured subtilisin E to active enzyme” value is “able to intermolecularly complement the refolding”.

B1: Streptomyces subtilisin inhibitor: inhibitor tested on processing of pro-subtilisin to active subtilisin (protein)
chain: DAPSALYAPSALVLTVGKGVSATTAAPERAVTLTCAPGPSGTHPAAGSACADLAAVGGDLNALTRGEDVMCPMVYDPVLLTVDGVWQGKRVSYERVFSNECEMNAHGSSVFAF
As to B1, in the series with pro-subtilisin E, the “Inhibition of the processing of pro-subtilisin to active subtilisin” value is reported as “unable to inhibit”.

B2: pro-subtilisin E: pro-subtilisin produced in E. coli as inclusion bodies, solubilized in 6M guanidine-HCl and purified in 5M urea (protein)
chain: T1 sequence (P04189 30-381 limits assumed) with A162S
On to B2, for which the “Subtilisin activity produced from 1 mg of pro-subtilisin” value in the series with pro-subtilisin E (0.5M (NH4)2SO4 in 10 mM Tris-HCl pH 7.0, 1 mM CaCl2) is recorded as 89 U. In the series with pro-subtilisin E (calculated from 89 U versus 470 U), the “Conversion efficiency of pro-subtilisin to active subtilisin” value is reported as “approximately 20%”. Also, in the series with pro-subtilisin E (estimated), the “Theoretical maximum activity for 1 mg of pro-subtilisin E” value was 470 U. In addition, in the series with pro-subtilisin E, the “Processing/conversion to active mature subtilisin” value is “converted to active subtilisin”.

B3: pro-subtilisin E with the Asp32 to Asn active site mutation: pro-subtilisin E with active site mutation Asp32 to Asn, used as exogenous pro-peptide source (protein, UniProt P04189 30-381, looked up, variant D32N)
pro-form: T1 sequence (P04189 30-381 limits assumed) with D109N
modifications: pro-form
With B3, the “Processing/conversion to active mature subtilisin” value in the series with pro-subtilisin E (listed as pro-subtilisin with an active site mutation (Asp32 to Asn)) is reported as “cannot be autoprocessed”; with pro-subtilisin E (listed as pro-subtilisin with an active-site mutation (aspartic acid at position 32 to asp)), “unable to be processed”. Besides, the “Renaturation of acid-denatured subtilisin BPN'” value in series [1] (acid-denatured) is “able to renature”. In addition, the “Renaturation of acid-denatured subtilisin Carlsberg” value in the series with subtilisin Carlsberg is “able to renature”. Also, the “Refolding/renaturation of denatured subtilisin E to active enzyme” value with denatured subtilisin E is listed as “active subtilisin is formed”.

B4: pro-63-mer (from -1 to -63) for subtilisin BPN' (peptide)
peptide: KQTMSTMSAAKKKDVISEKGGKVQKQFKYVDAASATLNEKAVKELKKDPSVAYVEEDHVAHAY
B4 returned a Ki with subtilisin BPN' of 790 nM. The “Efficiency of renaturation of denatured subtilisin BPN' relative to the pro-77-mer” value in series [1] was 30-40%.

B5: processed subtilisin: active subtilisin obtained by in vitro processing of pro-subtilisin E (protein, UniProt P04189 107-381, looked up)
Subtilisin E: T2 sequence (P04189 107-381)
Regarding B5, the “Specific activity of processed subtilisin relative to authentic subtilisin E” value in the series with pro-subtilisin E is recorded as “approximately half”.

B6: synthetic pro-peptide of -1 to -77 for subtilisin E (peptide)
peptide: AGKSSTEKKYIVGFKQTMSAMSSAKKKDVISEKGGKVQKQFKYVNAAAATLDEKAVKELKKDPSVAYVEEDHIAHEY
modifications: not checked
Turning to B6, the Ki in series [2] was < 540 nM.

B7: pro-77-mer (from -1 to -77) for subtilisin BPN' (peptide)
peptide: B6 peptide with S5N, T6G, A20T, S23A, N45D, A48S, D52N, I73V, E76A
In the series with subtilisin BPN', B7 registered an inhibitory constant (Ki) of 380 nM. For the same molecule, in series [1], the “Effectiveness for the renaturation of denatured subtilisin BPN'” value is recorded as “most effective”.

B8: pro-68-mer (from -1 to -68) for subtilisin BPN' (peptide)
peptide: YIVGFKQTMSTMSAAKKKDVISEKGGKVQKQFKYVDAASATLNEKAVKELKKDPSVAYVEEDHVAHAY
Turning to B8, in the series with subtilisin BPN', the affinity corresponds to a Ki of 760 nM. In addition, the “Efficiency of renaturation of denatured subtilisin BPN' relative to the pro-77-mer” value in series [1] was 30-40%.
